Positions count from the first letter of the chain named. In names and notes the source's numbering stands.
What was measured:
Assay type in all cases: cell-based
HEK293T cells = experiment: High throughput electrophysiology (IonFlux automated patch clamp), EC50 of engineered receptors to ligands
Procedure: To confirm the EC50s determined by plate reader as well as develop a better understanding of maximum current flow, the engineered receptors were subjected to high throughput electrophysiology system, as described below. For HEK293T studies, cDNAs encoding ion channels were cloned into pcDNA3.1 using standard recombination techniques. HEK293T cells from Clontech (Lenti-X™ 293T Cell Line) were cultured in DMEM supplemented with 10% FBS and 1% Pen/Strep to 40-50% confluence using standard cell culture protocols, transfected with ion channel plasmids at a concentration of 18 μg per 15 cm dish using Fugene 6, and grown for an additional 24 hours. Cells were then assayed on an electrophysiological system (IonFluxHT and/or Mercury, Fluxion Biosciences) in which dose-response relationships may be assessed through a microfluidics-based platform for establishing whole cell configurations. Ensemble plates were primed with extracellular buffer (140 mM NaCl, 5 mM KCl, 2 mM CaCl2), 1 mM MgCl2, 10 mM HEPES, and 10 mM glucose, pH 7.2 with NaOH, mOsm 310), intracellular buffer (145 mM CsCl, 2 mM CaCl2), 2 mM MgCl2, 10 mM HEPES, and 10 mM EGTA, pH 7.2 with CsOH, mOsm 305), as adapted from Lynagh and Lynch, and test compounds (stocks prepared fresh) diluted in extracellular buffer. Cells were then released from the plate with Accutase, centrifuged, resuspended in extracellular buffer, and loaded into Ensemble plates. Cells were then subjected to a standard protocol for priming, trapping, breaking, and establishing whole cell configuration, with cells held at −60 mV throughout the recording. After recording baseline, progressive doses of test compounds were applied using the IonFlux software to assess dose response relationships. Data were then analyzed off-line using custom Python scripts to convert data to .csv format, re-plot traces, and apply QC measurements to reject unstable recordings (i.e. thresholding based on access resistance and/or standard deviation in baseline, as well as artifact rejection). Peak currents were then calculated, and population data were fit using a 4-parameter logistic equation as described by the Hill Equation. Currents were measured on an automated patch clamp system (Fluxion Biosciences) following 1 second addition of drug and the EC50 values calculated are tabulated below in Table 22 below and Table 21 above (in Example 2).

Lenti-X 293T cells = experiment: YFP fluorescence quenching anion reporter plate reader assay of engineered receptors stimulated with acetylcholine or a non-native ligand; settings: for percent quench of YFP fluorescence, 10 uM ach: acetylcholine 10 uM; for percent quench of YFP fluorescence, 100 uM ach: acetylcholine 100 uM; for percent quench of YFP fluorescence, 1 mM ach: acetylcholine 1 mM; for percent quench of YFP fluorescence, 3 mM ach: acetylcholine 3 mM
Procedure, shortened: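 YFP quench was followed for about 1 min 43 s after ligand delivered in iodide-based ECS, pH 7.2. Values are end-of-read fluorescence (last 10 s) divided by the pre-ligand baseline (15 s). Cells were LX293T, transfected with receptor DNA a day before the assay.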

rat hippocampal neurons [1] = experiment: Spontaneous firing rate of rat hippocampal neurons (current clamp)
Procedure: For manual patch clamp experiments, Cells plated on coverslips were visualized at 10× and 40× on an inverted fluorescence microscope (Olympus). Recordings were made with an Axopatch 200B amplifier and Digidata 1550B (Molecular Devices) at RT using 3-6 MOhm glass patch electrodes (Sutter, BF150-86-10). Unless otherwise stated, recordings were made in extracellular solution (ECS) containing: 140 mM sodium chloride, 4 mM potassium chloride, 1 mM magnesium chloride, 2 mM calcium chloride, 10 mM HEPES, and 10 mM D-(+)-glucose (pH=7.3 with sodium hydroxide, osmolarity=305−315 mOsm). An 8-line reservoir (AutoMate Scientific) in combination with an 8-channel zero-dead-volume perfusion pencil (AutoMate Scientific) was used for perfusion. Data was acquired using pClamp software (Molecular Devices). Traces were either analyzed in Clampfit (Molecular Devices) or using custom Python code. […]
Spontaneous activity was recorded in gapfree mode, in the presence and absence of a compound. […] For both methods, minimum height, average height, maximum height were measured and frequency was calculated as the number of events in the epoch divided by the length of time of the epoch. For Clampfit, the resting membrane potential was measured at 3 points between events and averaged for each epoch. […] For both methods, membrane potential was corrected for the calculated liquid junction potential. […]

rat hippocampal neurons [2] = experiment: Evoked rheobase shift in rat hippocampal neurons (current clamp)
Procedure: For manual patch clamp experiments, Cells plated on coverslips were visualized at 10× and 40× on an inverted fluorescence microscope (Olympus). Recordings were made with an Axopatch 200B amplifier and Digidata 1550B (Molecular Devices) at RT using 3-6 MOhm glass patch electrodes (Sutter, BF150-86-10). Unless otherwise stated, recordings were made in extracellular solution (ECS) containing: 140 mM sodium chloride, 4 mM potassium chloride, 1 mM magnesium chloride, 2 mM calcium chloride, 10 mM HEPES, and 10 mM D-(+)-glucose (pH=7.3 with sodium hydroxide, osmolarity=305−315 mOsm). An 8-line reservoir (AutoMate Scientific) in combination with an 8-channel zero-dead-volume perfusion pencil (AutoMate Scientific) was used for perfusion. Data was acquired using pClamp software (Molecular Devices). Traces were either analyzed in Clampfit (Molecular Devices) or using custom Python code. Plotting and statistics were performed in GraphPad Prism.
No holding current was applied to the membrane for cells included in the final datasets. Data acquisition settings and analysis methods were the same as for the DRG rheobase experiments.

B1: CODA536: engineered chimeric LGIC receptor, L131D, S172D in SEQ ID NO: 33 (protein)
chain: MRCSPGGVWLALAASLLHVSLQGEFQRKLYKELVKNYNPLERPVANDSQPLTVYFSLSLLQIMDVDEKNQVLTTNIWLQMSWTDHYLQWNVSEYPGVKTVRFPDGQIWKPDILLYNSADERFDATFHTNVDVNSSGHCQYLPPGIFKSSCPMDLKNFPMDVQTCKLKFGSWDYGGWSLDLQMQEADISGYIPNGEWDLVGIPGKRSERFYECCKEPYPDVTFTVTMRRRMGYYLIQMYIPSLLIVILSWISFWINMDAAPARVGLGITTVLTMTTQSSGSRASLPKVSYVKAIDIWMAVCLLFVFSALLEYAAVNFVSRQHKELLRFRRKRRHHKSPMLNLFQEDEAGEGRFNFSAYGMGPACLQAKDGISVKGANNSNTTNPPPAPSKSPEEMRKLFIQRAKKIDKISRIGFPMAFLIFNMFYWIIYKIVRREDVHNQ
modifications: synthetic sequence of chimeric LGIC
HEK293T cells; ligand AZD-0328
  fold increased potency towards AZD-0328 compared with wild type receptor: at least 10 fold
HEK293T cells; ligand RG-3487
  fold increased potency towards RG-3487 compared with wild type receptor: at least 10 fold
Lenti-X 293T cells; 1 nM brd
  YFP fluorescence quenching using TC-5619/Bradanicline: −1.24%
Lenti-X 293T cells; 3 nM brd
  YFP fluorescence quenching using TC-5619/Bradanicline: 0.25%
Lenti-X 293T cells; 10 nM brd
  YFP fluorescence quenching using TC-5619/Bradanicline: −2.57%
Lenti-X 293T cells; 30 nM brd
  YFP fluorescence quenching using TC-5619/Bradanicline: 0.78%
Lenti-X 293T cells; 30 nM fac
  YFP fluorescence quenching using Facinicline: 24.15
Lenti-X 293T cells; 50 nM abt
  YFP fluorescence quenching using ABT-126: −3.19%
Lenti-X 293T cells; 100 nM CNL002
  YFP fluorescence quenching using CNL002: 71.72%
Lenti-X 293T cells; 100 nM abt
  YFP fluorescence quenching using ABT-126: 7.58%
Lenti-X 293T cells; 100 nM azd0328
  YFP fluorescence quenching using AZD-0328: 51.44%
Lenti-X 293T cells; 100 nM brd
  YFP fluorescence quenching using TC-5619/Bradanicline: 4.51%
Lenti-X 293T cells; 300 nM abt
  YFP fluorescence quenching using ABT-126: −1.65%
Lenti-X 293T cells; 300 nM azd0328
  YFP fluorescence quenching using AZD-0328: 77.12%
Lenti-X 293T cells; 300 nM brd
  YFP fluorescence quenching using TC-5619/Bradanicline: 30.97%
Lenti-X 293T cells; 300 nM fac
  YFP fluorescence quenching using Facinicline: 80.17
Lenti-X 293T cells; 1 uM CNL002
  YFP fluorescence quenching using CNL002: 77.26%
Lenti-X 293T cells; 1 uM abt
  YFP fluorescence quenching using ABT-126: 31.29%
Lenti-X 293T cells; 1 uM brd
  YFP fluorescence quenching using TC-5619/Bradanicline: 44.41%
Lenti-X 293T cells; 1 uM tc6987
  YFP fluorescence quenching using TC-6987: −18.24
Lenti-X 293T cells; 10 uM fac
  YFP fluorescence quenching using Facinicline: 81.34
Lenti-X 293T cells; 10 uM tc6987
  YFP fluorescence quenching using TC-6987: −23.06
Lenti-X 293T cells; 30 uM CNL002
  YFP fluorescence quenching using CNL002: 77.5%
Lenti-X 293T cells; 30 uM azd0328
  YFP fluorescence quenching using AZD-0328: 79.26%
Lenti-X 293T cells; 30 uM fac
  YFP fluorescence quenching using Facinicline: 79.9
Lenti-X 293T cells; 500 uM tc6987
  YFP fluorescence quenching using TC-6987: −19.3
Lenti-X 293T cells; TC-6683 30 nM
  percent quench of YFP fluorescence, 30 nM TC-6683: −22.285%
Lenti-X 293T cells; TC-6683 300 nM
  percent quench of YFP fluorescence, 300 nM TC-6683: −23.926%
Lenti-X 293T cells; TC-6683 3 uM
  percent quench of YFP fluorescence, 3 uM TC-6683: −20.514%
Lenti-X 293T cells; TC-6683 30 uM
  percent quench of YFP fluorescence, 30 uM TC-6683: −3.078%
Lenti-X 293T cells; TC-6683 100 uM
  percent quench of YFP fluorescence, 100 uM TC-6683: 7.37%
Lenti-X 293T cells
  percent quench of YFP fluorescence, 10 uM ach: −12.91%
  percent quench of YFP fluorescence, 100 uM ach: −20.88%
  percent quench of YFP fluorescence, 1 mM ach: 79.85%
  percent quench of YFP fluorescence, 3 mM ach: 79.98%

B2: CODA1140: engineered chimeric LGIC receptor, R101F, L131N, S172D in SEQ ID NO: 33 (protein)
chain: B1 chain with R101F, D131N
modifications: synthetic sequence of chimeric LGIC
Rat hippocampal neurons [1]; +CNL002 @ EC90
  Firing Rate Spontaneous; Rat Hippocampal Neurons, +CNL002 @ EC90: 0.71 ± 0.29 Hz
Rat hippocampal neurons [1]; Baseline, no ligand
  Firing Rate Spontaneous; Rat Hippocampal Neurons, Baseline: 3.29 ± 0.75 Hz
Lenti-X 293T cells; 1 nM CNL001, first column
  YFP fluorescence quenching using CNL001: 52.592%
Lenti-X 293T cells; 1 nM CNL001, second column
  YFP fluorescence quenching using CNL001: 61.248%
Lenti-X 293T cells; 1 nM CNL002
  YFP fluorescence quenching using CNL002: 0.337%
Lenti-X 293T cells; 3 nM var, first column
  YFP fluorescence quenching using Varenicline: −6.169
Lenti-X 293T cells; 3 nM var, second column
  YFP fluorescence quenching using Varenicline: −10.445
Lenti-X 293T cells; 10 nM CNL001, first column
  YFP fluorescence quenching using CNL001: 71.678%
Lenti-X 293T cells; 10 nM CNL001, second column
  YFP fluorescence quenching using CNL001: 71.881%
Lenti-X 293T cells; 10 nM CNL002
  YFP fluorescence quenching using CNL002: 59.894%
Lenti-X 293T cells; 30 nM var, first column
  YFP fluorescence quenching using Varenicline: −9.679
Lenti-X 293T cells; 30 nM var, second column
  YFP fluorescence quenching using Varenicline: −10.878
Lenti-X 293T cells; 50 nM CNL001, first column
  YFP fluorescence quenching using CNL001: 73.807%
Lenti-X 293T cells; 50 nM CNL001, second column
  YFP fluorescence quenching using CNL001: 75.649%
Lenti-X 293T cells; 50 nM CNL002
  YFP fluorescence quenching using CNL002: 76.501%
Lenti-X 293T cells; 50 nM abt
  YFP fluorescence quenching using ABT-126: −7.87%
Lenti-X 293T cells; 100 nM CNL001, first column
  YFP fluorescence quenching using CNL001: 76%
Lenti-X 293T cells; 100 nM CNL001, second column
  YFP fluorescence quenching using CNL001: 76.329%
Lenti-X 293T cells; 100 nM CNL002
  YFP fluorescence quenching using CNL002: 79.03%
Lenti-X 293T cells; 100 nM abt
  YFP fluorescence quenching using ABT-126: −5.35%
Lenti-X 293T cells; 300 nM abt
  YFP fluorescence quenching using ABT-126: −3.67%
Lenti-X 293T cells; 300 nM var, first column
  YFP fluorescence quenching using Varenicline: −9.572
Lenti-X 293T cells; 300 nM var, second column
  YFP fluorescence quenching using Varenicline: −8.873
Lenti-X 293T cells; 500 nM var, first column
  YFP fluorescence quenching using Varenicline: −14.656
Lenti-X 293T cells; 500 nM var, second column
  YFP fluorescence quenching using Varenicline: −11.304
Lenti-X 293T cells; 1 uM CNL001, first column
  YFP fluorescence quenching using CNL001: 76.168%
Lenti-X 293T cells; 1 uM CNL001, second column
  YFP fluorescence quenching using CNL001: 74.076%
Lenti-X 293T cells; 1 uM CNL002
  YFP fluorescence quenching using CNL002: 82.85%
Lenti-X 293T cells; 1 uM abt
  YFP fluorescence quenching using ABT-126: 3.64%
Lenti-X 293T cells; 1 uM var, first column
  YFP fluorescence quenching using Varenicline: −13.996
Lenti-X 293T cells; 1 uM var, second column
  YFP fluorescence quenching using Varenicline: −16.128
Lenti-X 293T cells; 10 uM abt
  YFP fluorescence quenching using ABT-126: 5.91%
Lenti-X 293T cells
  percent quench of YFP fluorescence, 10 uM ach: −20.07%
  percent quench of YFP fluorescence, 100 uM ach: −25.8%
  percent quench of YFP fluorescence, 1 mM ach: 9.02%
  percent quench of YFP fluorescence, 3 mM ach: 45%
Lenti-X 293T cells; acetylcholine 30 uM
  percent quench of YFP fluorescence, 30 uM ach: −16.92%
Lenti-X 293T cells; acetylcholine 300 uM
  percent quench of YFP fluorescence, 300 uM ach: −11.21%
Rat hippocampal neurons [2]; +CNL002 @ EC90
  Rheobase Shift Evoked; Rat Hippocampal Neurons, +CNL002 @ EC90: 296.9 ± 72.65 pA
Rat hippocampal neurons [2]; Baseline, no ligand
  Rheobase Shift Evoked; Rat Hippocampal Neurons, Baseline: 40.63 ± 10.50 pA
